Experimental data as given in US20240076386A1 (Pfizer, published 2024).

Assays:
[1] = target: T1, mouse E-selectin extracellular domain with 10 His purification tail (mouse, UniProt Q00690 22-557); assay: antigen binding ELISA, HRP detection
T1 construct: also called soluable mouse E-selectin extracellular domain; muE-Selctin
T1 sequence: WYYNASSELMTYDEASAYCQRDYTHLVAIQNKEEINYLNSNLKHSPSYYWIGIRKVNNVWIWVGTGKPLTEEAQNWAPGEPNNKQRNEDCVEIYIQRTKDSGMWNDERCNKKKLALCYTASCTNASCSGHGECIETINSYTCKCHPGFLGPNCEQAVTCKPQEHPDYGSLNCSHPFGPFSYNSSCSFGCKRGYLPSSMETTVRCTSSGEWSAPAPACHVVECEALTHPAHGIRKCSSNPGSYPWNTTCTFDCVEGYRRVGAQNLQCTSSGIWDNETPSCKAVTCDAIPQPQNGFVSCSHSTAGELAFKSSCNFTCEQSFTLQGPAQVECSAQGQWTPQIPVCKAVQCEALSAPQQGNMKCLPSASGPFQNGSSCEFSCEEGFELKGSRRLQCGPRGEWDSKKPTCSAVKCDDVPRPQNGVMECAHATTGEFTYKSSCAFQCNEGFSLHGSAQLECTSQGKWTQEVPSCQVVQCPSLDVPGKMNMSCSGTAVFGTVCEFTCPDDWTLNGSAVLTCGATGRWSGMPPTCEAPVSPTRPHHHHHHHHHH
Experimental: 384-well Maxisorp plates were used to capture the human and mouse His-tagged recombinant E-selectin polypeptides. The polypeptides were incubated with chimeric antibodies of varying concentrations and detected with HRP-labeled anti-human IgG1 antibodies.

[2] = target: T1, mouse E-selectin extracellular domain …; assay: SPR, antibody captured, E-selectin analyte
Experimental: To characterize binding of antibodies to human, cynomolgus monkey, and mouse E-selectin, an antibody was diluted to 0.5 μg/mL in HBS-EP+ and captured by the anti-human IgG immobilized on flow cells 2, 3 and 4 for 30 seconds to 1 minute at a flow rate of 10 μL/minute to achieve a capture level of 70 to 300 RU. Flow cell 1 was used as a reference surface. […] HBS-EP+ buffer cycles collected for each captured antibody were used for double-referencing (Myszka D G. J. Mol. Recognition 1999; 12(5):279-84). At the end of each cycle, the entire anti-IgG surface was regenerated by a 30 second pulse of 3 M MgCl₂ and a 30 second pulse of ionic buffer (1.83 M MgCl₂, 0.92 M Urea, 1.83 M Guanidine HCl, pH 7.4) (Andersson K. Analy. Chem. 1999; 71(13): 2475-81). Kinetic assays were conducted at 25° C. at a collection rate of 10 Hertz (Hz) on a BIAcore™ T200 instrument (GE Healthcare). Rate constants and affinities were determined by fitting the data to a 1:1 binding model in BIAcore™ T200 Evaluation software version 3.0 (GE Healthcare).

[3] = target: T1, mouse E-selectin extracellular domain …; assay: AlphaLISA competition vs sialyl Lewis A-PAA-biotin
Experimental: The neutralization ability of anti-E-selectin antibodies was measured in an AlphaLISA homogenous competition assay. […] This was incubated at room temperature for 15 minutes, followed by addition of 1.4 μL of human, mouse or cynomolgus monkey E-selectin added to a final concentration of 7 nM. This was again incubated at room temperature for 15 minutes. To this, 1.4 μL AlphaLISA beads was added (Ni-donor/SA-acceptor) for a final assay concentration of 10 μg/mL. This was incubated in the dark at room temperate for at least 10 hours. The plates were then read using the AlphaLISA protocol (Envision).

EC50 [1]: 0.02 nM
Kd [2]: 1.2 nM
koff [2]: 0.000231 s⁻¹
kon [2]: 192000 M⁻¹ s⁻¹
t½ [2]: 50.2 min
EC50 [3]: 1 nM
B1: anti-E-selectin antibody 0027 chimera (antibody, human IgG1, kappa, V domains shown)
VH: EVHLHQSGPELGRPGSSVKISCKASGYTFTDYVMNWVRQSPGQGLEWIGWINPEDYSFDSGEKFLERATLTAATSSNTVYIQLSGLTSDDTATYFCVRGGLPGDWFAYWGQGTLVTVSS
VL: DIQMTQSPSFLSASVGDRITINCKTSQNINRYLNWFQQKLGEPPKLLIYNANSLQADIPSRFSGSGSGTDFTLTITSLQPEDVATYFCLQHHFWPYTFGAGTKLELRR
notes: rat VH/VL on effector-null human IgG1 (L234A, L235A, G237A, EU) and human kappa; directed to mouse E-selectin
